Data on 3 molecules can be found in PMC13234300, “De novo and scaffold-based design of GDF15 binders for cancer cachexia diagnostics and therapeutics” (Experimental & Molecular Medicine, 2026).

Experiment [1] deals with recombinant mature human GDF15 dimer, N-glyco-engineered variant (R198N and G200T), Twin-Strep tagged (human) (UniProt Q99988). The experiment in a line: SPR. In general terms: SPR reads the build-up and loss of mass on a sensor chip optically.
For experiment [2], the target named is T1, recombinant mature human GDF15 dimer, N-glyco-engineered variant (R198N and G200T), Twin-Strep tagged (human, UniProt Q99988 198-308, R198N | G200T).
T1 construct: mature human GDF15, residues 198–308, N-glyco-engineered variant (R198N and G200T); no cleavage step is described (eluted with desthiobiotin, then SEC); also called Twin-Strep-GDF15 dimer; growth differentiation factor-15; source: Expi293F, transfected, purified from supernatant (Strep-Tactin-XT, SEC)
T1 sequence (looked up): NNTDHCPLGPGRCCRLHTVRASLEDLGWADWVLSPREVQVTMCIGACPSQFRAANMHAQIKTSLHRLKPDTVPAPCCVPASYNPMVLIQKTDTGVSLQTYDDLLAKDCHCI
Description: SPR; Biacore T200; GDF15 dimer immobilised on CM5 chip by amine coupling (10 mM sodium acetate, pH 5.5); HBS-EP+ (0.01 M HEPES pH 7.4, 0.15 M NaCl, 3 mM EDTA, 0.05% P20); analytes 5-100 nM, 300 s association, 300 s dissociation, 30 μl/min; two-state reaction model. The conditions noted are these: both partners purified.

The target of experiment [3] is T2, recombinant mature human GDF15 dimer, N-glyco-engineered variant (R198N and G200T), Twin-Strep tagged (human, UniProt Q99988 198-308, R198N | G200T).
T2 sequence: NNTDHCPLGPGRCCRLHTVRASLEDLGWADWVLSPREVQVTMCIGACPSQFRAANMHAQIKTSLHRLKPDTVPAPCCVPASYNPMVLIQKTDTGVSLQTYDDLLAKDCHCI
Description: SPR.

Experiment [4] deals with T1, recombinant mature human GDF15 dimer, …. Description: SPR; Biacore T200; GDF15 dimer immobilised on CM5 chip by amine coupling; HBS-EP+; analyte 5-50 nM in the figure; 1:1 binding model; apparent (avidity of the Fc dimer). The conditions noted are these: both partners purified.

In the case of ponsegromab, in experiment [1], the Kd came out at 0.0802 nM and the off-rate constant (koff) (usually a measure of how fast the partners let go of each other) was 2.24e-05 s⁻¹.

B1: human GFRAL D2 domain (residues 115–217) (domain or fragment, UniProt Q6UXV0 115-217, looked up)
chain: WNLTTRSHHGFKGMWSCLEVAEACVGDVVCNAQLASYLKACSANGNPCDLKQCQAAIRFFYQNIPFNIAQMLAFCDCAQSDIPCQQSKEALHSKTCAVNMVPP
notes: human GFRAL (glial cell-derived neurotrophic factor family receptor alpha-like), D2 domain, residues 115–217; the expressed construct as residues 115–217; also called hGFRAL D2; initial scaffold; source: Expi293F, transfected, purified (protein A, on-resin thrombin cleavage, SEC); not shown: Fc, C-terminal, cleaved
On to B1, for which the Kd in experiment [2] was found to be 90.4 nM.

B2: SGA2-4-Fc (Fc-fused SGA2-4 binder, homodimeric decoy receptor) (Fc fusion)
chain: VTVFEALDAIIADPQSNAALAAHLKAVAALPADATKAQVDAIYDAFLAQLPAEVRAKVLAAKPDPTNPDEIQLYNQLRGYDKL
modifications: Homodimer through a C-terminal human IgG Fc (isotype and limits not given). The Fc, thrombin site and 6xHis tag are left out; the Fc only provides bivalency/avidity. Expressed in mammalian cells.
Turning to B2, in experiment [3], the off-rate (koff) is 7.16e-05 s⁻¹. Also, the Kd in experiment [4] turned out to be 0.081 nM.
